Article PMC10946055

What was measured:
Assay in all cases: MST
[1] = molecular target: XPA DBD F112C (Homo sapiens, UniProt P23025 98-239, F112C)
[2] = molecular target: XPA DBD D114Y (Homo sapiens, UniProt P23025 98-239, D114Y)
[3] = molecular target: XPA DBD R130I (Homo sapiens, UniProt P23025 98-239, R130I)
[4] = molecular target: XPA DBD M113I (Homo sapiens, UniProt P23025 98-239, M113I)
[5] = molecular target: XPA DBD WT (Homo sapiens, UniProt P23025 98-239)
[6] = molecular target: XPA DBD Y148D (Homo sapiens, UniProt P23025 98-239, Y148D)
Chain of XPA DBD Y148D (P23025 98-239 Y148D): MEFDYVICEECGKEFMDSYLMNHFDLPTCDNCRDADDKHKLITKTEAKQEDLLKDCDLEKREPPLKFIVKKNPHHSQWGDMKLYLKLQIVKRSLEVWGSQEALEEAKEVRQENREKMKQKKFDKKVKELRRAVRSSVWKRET

Chain of XPA DBD WT (P23025 98-239): as the sequence (P23025 98-239 Y148D) above, with D51Y counted along it
Chain of XPA DBD D114Y (P23025 98-239 D114Y): as the sequence (P23025 98-239 Y148D) above, with D17Y, D51Y counted along it
Chain of XPA DBD M113I (P23025 98-239 M113I): as the sequence (P23025 98-239 Y148D) above, with M16I, D51Y counted along it
Chain of XPA DBD R130I (P23025 98-239 R130I): as the sequence (P23025 98-239 Y148D) above, with R33I, D51Y counted along it
Chain of XPA DBD F112C (P23025 98-239 F112C): as the sequence (P23025 98-239 Y148D) above, with F15C, D51Y counted along it

TTTTGCGGCCGCTTTTGCGGCCGC (structured_DNA) [NER junction mimic hairpin, 8 bp with 4 nt overhang]
Kd [1]: 9.2 ± 2.2 µM
Kd [2]: 8.8 ± 1.7 µM
Kd [3]: 38 ± 22 µM
Kd [4]: 12 ± 1.9 µM
Kd [5]: 7.7 ± 3.7 µM
binding result [6]: no binding
